± gives the uncertainty stated by the source.
assay: amyloid nucleation score (Sup35N fusion, yeast selection) (log enrichment); library NNK1; higher = more nucleation; inactive = no reads after selection
Method in brief: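 Output and input plasmid inserts were sequenced by Illumina after psi-negative yeast carrying Sup35N fused to peptides of 20 random codons had been induced 24 hours with 100 μM copper sulfate and grown 7 days at 30°C on medium lacking adenine and uracil. The nucleation score is the DiMSum log enrichment of output over input reads, centred on the mode score of non-aggregating sequences. Sequences with under 100 input reads were excluded.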

Going from KSLENDHIVSVCSFLISRTR to NNMRVLLRFLSVVLGSGEVR, the amyloid nucleation score falls from 3.97 ± 0.081 to 1.01 ± 0.67.

GLWLKLLVDLKHMKIEHPWH and RESSAAVDTCTILKMTEKVG are within error of each other in amyloid nucleation score: 0.933 ± 0.72 for the first, -0.131 ± 0.66 for the second.

Compared with PALFVCSSFKLFMPNILGNQ, VGISCPYYLGRGIMVEARSD is lower in amyloid nucleation score: 6.16 ± 0.063 for the first, -0.006 ± 0.62 for the second.

Compared with QSFSLS, TSWVEAPSVSSFGWFLSVHL is higher in amyloid nucleation score: 0.609 ± 0.33 for the first, 1.91 ± 0.12 for the second.

Going from SKEFPHMYFFGVRFVVVTKV to FKFMSLGMSWAT, the amyloid nucleation score rises from -0.246 ± 0.45 to 1.61 ± 0.33.

SERTMMSDKLSKRSLPCSLR and DGEAPKGSTGWTCGRVNERD are within error of each other in amyloid nucleation score: -0.717 ± 0.63 for the first, -0.125 ± 0.6 for the second.

RCSLIPGRLPRNRFVRPDYC and ASMWSWRYHMEAINSTKAEA are within error of each other in amyloid nucleation score: -1.53 ± 1.3 for the first, -0.745 ± 2.4 for the second.

First: WLFSPNVFVNFCFG
Second: CRGNLIL
The amyloid nucleation score of the first is higher: 6.913 ± 0.055 for the first, -0.578 ± 0.29 for the second.

TSPDCKAAKSQGSKCRDRSC and VPAVSCMVFTAQFDSGVYSC are within error of each other in amyloid nucleation score: -0.495 ± 0.62 for the first, -0.03 ± 0.73 for the second.

CTIWPSQDGRGCTLCGSRL and FGPRSDAVLVLYFSYVSPLD are within error of each other in amyloid nucleation score: 0.348 ± 0.75 for the first, -1.79 ± 2.4 for the second.

INFCFKCWNKVWLDNFFLSS and PTGSYKAGSSSSLVYPFED are within error of each other in amyloid nucleation score: -0.67 ± 0.22 for the first, -0.062 ± 0.52 for the second.

KSSCRDLIVDVNTGE and SASGAWSGWPHRKVGYGSSL are within error of each other in amyloid nucleation score: 0.765 ± 0.38 for the first, 0.664 ± 0.36 for the second.

First: VLMVPWVDGSCSS
Second: GLLRLDRVNISALICHQVNV
The amyloid nucleation score of the first is lower: -1.06 ± 1.3 for the first, 0.873 ± 0.62 for the second.

LLSFLRSAKIQTGR and EWKNGSHMWLQRLGESWNRL are within error of each other in amyloid nucleation score: 0.229 ± 0.38 for the first, -0.413 ± 0.35 for the second.

First: RHSGDFLVFMYKGVLVWSTG
Second: FVNFGFAGIASWHFVLMFIK
The amyloid nucleation score of the first is higher: 3.24 ± 0.092 for the first, 0.1 ± 0.27 for the second.

LWYKIGFLIWSRTGTLYQGI and DIKGRLLWGDKARLNEVPLR are within error of each other in amyloid nucleation score: 0.273 ± 0.3 for the first, 1.04 ± 0.57 for the second.

LVNCVVGFLTLVNFWSIHQL and WAMSTFSVYSKRTFVARWDK are within error of each other in amyloid nucleation score: 0.206 ± 0.79 for the first, 0.048 ± 0.29 for the second.

GSSRDNGQFYSFELS and SDYSLTCMGVYGEGKTRGNL are within error of each other in amyloid nucleation score: 0.398 ± 0.64 for the first, 0.045 ± 0.32 for the second.

SSCSPHLLFGLASVGV and RFSKNE are within error of each other in amyloid nucleation score: 0.39 ± 0.53 for the first, 0.523 ± 0.87 for the second.

Going from FQWNAANYANSYPCKLLCSA to SLMIDRTRLGGN, the amyloid nucleation score falls from 1.78 ± 0.21 to 0.769 ± 0.17.

IWCFLI and SRYSLTCRVLTWLPDNLVRR are within error of each other in amyloid nucleation score: 0.333 ± 0.55 for the first, 0.07 ± 0.42 for the second.

PTDMPGHVTMSRGSCLEWVL and WSRAVVFMSIHFRNGLMQ are within error of each other in amyloid nucleation score: 0.355 ± 0.36 for the first, -0.444 ± 0.64 for the second.

HSGTSCWVGIIDV and SYSDICEVNLDTHKFVLGVR are within error of each other in amyloid nucleation score: -0.248 ± 0.28 for the first, -0.992 ± 0.49 for the second.

VLGYSRPLSDTSSVGTIIPA and LPVLSGWTNTAA are within error of each other in amyloid nucleation score: 0.172 ± 0.38 for the first, -0.73 ± 0.59 for the second.

Compared with YASCCTDCNWLCFFRRLREA, FALIR is lower in amyloid nucleation score: 7.041 ± 0.054 for the first, 0.81 ± 0.51 for the second.

CTDSEAKGCDFFGRISVNVY and LFSLNTLCM are within error of each other in amyloid nucleation score: 0.689 ± 0.73 for the first, 0.985 ± 0.51 for the second.

Going from LVCFHQRVKIVRYCRTGTLT to FSGVTMR, the amyloid nucleation score rises from -0.095 ± 0.61 to 1.7 ± 0.32.

GLKIQPLCS and LRKGTVRLSSFEKWYMVRTG are within error of each other in amyloid nucleation score: 0.373 ± 0.49 for the first, -0.701 ± 0.7 for the second.

Going from VSCIV to YFVSCLFILWPRQSSTRPFE, the amyloid nucleation score rises from 0.198 ± 0.58 to 8.165 ± 0.077.

First: ALIYPILILYGV
Second: ICCVVESLCYSVMFKHIS
The amyloid nucleation score of the first is lower: 1.52 ± 0.85 for the first, 4.55 ± 0.079 for the second.

MRVLDTNSGLMTITPFPVHS and KCLIYGKFIVRCVPINV are within error of each other in amyloid nucleation score: -0.574 ± 0.67 for the first, -0.088 ± 0.59 for the second.

Compared with MLVFYCNRN, NFTIDKRNAMLCVGRLYRSF is lower in amyloid nucleation score: 2.88 ± 0.22 for the first, 1.05 ± 0.5 for the second.

FCLNLQYRSKMMHRANICL and GWMVRMLEHYHPAV are within error of each other in amyloid nucleation score: 0.159 ± 0.17 for the first, -0.226 ± 0.42 for the second.

Compared with KTASLRRVG, VSAVDMMYHLLHRILGIIAC is higher in amyloid nucleation score: -0.071 ± 0.32 for the first, 1.48 ± 0.55 for the second.

Compared with TWSLLNIVYMSN, FDLFVKGECFVVRPLATSTY is lower in amyloid nucleation score: 0.867 ± 0.39 for the first, -0.66 ± 0.38 for the second.

Compared with QWCVKESAFIYEYRLSGDCL, CNIVFSPGTDNVVEIRVRKL is higher in amyloid nucleation score: -0.584 ± 0.74 for the first, 4.15 ± 0.062 for the second.

Going from LSFIACPYIVRVYAFNPRTG to YSRLSCWYYAPGVSLGVIKW, the amyloid nucleation score falls from 6.16 ± 0.071 to 0.483 ± 0.48.

WLYMRGPKVVRSCREITARA and ISLYVSNYRAYDKSPLGEDW are within error of each other in amyloid nucleation score: 0.413 ± 1.4 for the first, 0.398 ± 0.74 for the second.

Going from RINLVDLMWMRHWRMGNI to RFVMRPFATVSTFSISVPAC, the amyloid nucleation score falls from 1.41 ± 0.29 to -0.638 ± 0.74.

First: DFECILLGCFGLDLPVTGIR
Second: ATQNLKY
The amyloid nucleation score of the first is higher: 2.27 ± 0.16 for the first, 0.824 ± 0.79 for the second.

RGQQPFVTLKRAVFKSINTD and VLESIQGCYFLGASWIAEFR are within error of each other in amyloid nucleation score: -0.02 ± 0.41 for the first, 0.409 ± 0.48 for the second.

LYAKLQLLRNKYRVYLFVTS and FDNVVENHSS are within error of each other in amyloid nucleation score: -0.741 ± 0.55 for the first, -0.074 ± 0.43 for the second.

VLATGVCACTGVYTFMTWWV and CWCQAPVC are within error of each other in amyloid nucleation score: -0.455 ± 0.47 for the first, 0.124 ± 0.31 for the second.

GSQMYNVHVVCVT and YGMAF are within error of each other in amyloid nucleation score: 0.154 ± 0.73 for the first, -1.71 ± 2.4 for the second.

YIKGDQLVVVDTYMFRVKL and IVHMIYWVM are within error of each other in amyloid nucleation score: -0.991 ± 2.4 for the first, 0.009 ± 0.61 for the second.

Going from PMVIYNFEFNFGVSSDRIYA to YCCSCASCGPGVNRSWGN, the amyloid nucleation score falls from 4.35 ± 0.15 to 1.57 ± 0.16.

KCTENLFRHCIRLEGSTWKF and LLYGA are within error of each other in amyloid nucleation score: -1.34 ± 2.7 for the first, -0.727 ± 1.4 for the second.

Compared with LYACNFFVFISRPAGMDSAS, RVIFSGYWRAIFSLS is lower in amyloid nucleation score: 5.29 ± 0.079 for the first, -0.383 ± 0.66 for the second.

Compared with VRLIRTPSDIGTYIIGCREG, TLSGFYPMYHHLCHECVLKP is higher in amyloid nucleation score: -0.065 ± 0.38 for the first, 1.13 ± 0.37 for the second.

First: YVIRFVKCR
Second: THDLRLMIGHDCDTVNGYSR
The amyloid nucleation score of the first is higher: 2.23 ± 0.55 for the first, -0.725 ± 0.43 for the second.

RGRTRLKFLCLLYWWGKTKG and QRFLHVESYESCLVSVSNLS are within error of each other in amyloid nucleation score: -0.4 ± 0.44 for the first, -0.752 ± 1.9 for the second.

YKAERVKSVRTITPRVTLLW and LKYKKLPFIKRDEKFPTNRN are within error of each other in amyloid nucleation score: -0.331 ± 0.61 for the first, 0.398 ± 0.54 for the second.

QYPLMK and PWACSTSRSMLPSSSLPALM are within error of each other in amyloid nucleation score: 0.319 ± 0.32 for the first, 0.814 ± 0.66 for the second.

Going from DKAGNGQNGATGWRTMALSG to FCICNRKRHNPSPEKKNA, the amyloid nucleation score falls from 0.777 ± 1.2 to -1.36 ± 0.91.

VTIAHNGNLSCRLYTYVQVR and GLTCSKAAIKRLG are within error of each other in amyloid nucleation score: 0.515 ± 0.57 for the first, -0.367 ± 0.54 for the second.

First: SCLPFLGYPFQDVGLIFLVA
Second: EWVGQFEYEGTTLWVYLVTL
The amyloid nucleation score of the first is higher: 0.749 ± 0.51 for the first, -0.419 ± 0.27 for the second.

First: RRGTSFLQIYLACSHVQTSH
Second: NSGESLS
The amyloid nucleation score of the first is higher: 4.56 ± 0.11 for the first, -0.186 ± 0.85 for the second.

In the case of VFCLRLAYNAFREMSAHKC, the amyloid nucleation score is reported as 3.31 ± 0.18.

With GIRPNIANFSYKVHHPVLRG the amyloid nucleation score was “inactive”.
For LNSLPLSTVLYSFRVMYWMY, the amyloid nucleation score was “inactive”.
For LYGGNSRFRLSSYRYGMFWN, the amyloid nucleation score was “inactive”.
In the case of TPSSAFFDAMLNLQQVQSKC, the amyloid nucleation score is reported as “inactive”.
In the case of NNMRYTV, the amyloid nucleation score is reported as “inactive”.
In the case of YCLCCHLLKT, the amyloid nucleation score is reported as “inactive”.
With CSDSVGSIYSHVRSGGLE the amyloid nucleation score was “inactive”.
For TNFRRSCYVDGVC, the amyloid nucleation score was “inactive”.
With DSRKSRYGSWVLRWS the amyloid nucleation score was “inactive”.
With SRFNPSQRMHSNSGKGGVSF the amyloid nucleation score was “inactive”.
With CMLREPKRKYPVKIMCSLLV the amyloid nucleation score was “inactive”.

From the supplement of paper PMC12042874
